Test results published in paper PMC8905165, “Reconstitution of an active human CENP-E motor” (Open Biology, 2022).

Legend:
[1] = target: the molecule itself; experiment: native gel or EMSA; native PAGE of purified CENP-E483-2mNeon; monomer to dimer
[2] = target: the molecule itself; experiment: single-molecule photobleaching step counting and initial intensity analysis (TIRF); 0.5 nM fluorescently tagged motor adsorbed non-specifically to silanized coverslips, BRB80 with oxygen scavenger mix, 30°C; monomer to dimer

B1: CENP-E483-2mNeon (domain or fragment, human, UniProt Q02224 1-483, looked up)
chain: MAEEGAVAVCVRVRPLNSREESLGETAQVYWKTDNNVIYQVDGSKSFNFDRVFHGNETTKNVYEEIAAPIIDSAIQGYNGTIFAYGQTASGKTYTMMGSEDHLGVIPRAIHDIFQKIKKFPDREFLLRVSYMEIYNETITDLLCGTQKMKPLIIREDVNRNVYVADLTEEVVYTSEMALKWITKGEKSRHYGETKMNQRSSRSHTIFRMILESREKGEPSNCEGSVKVSHLNLVDLAGSERAAQTGAAGVRLKEGCNINRSLFILGQVIKKLSDGQVGGFINYRDSKLTRILQNSLGGNAKTRIICTITPVSFDETLTALQFASTAKYMKNTPYVNEVSTDEALLKRYRKEIMDLKKQLEEVSLETRAQAMEKDQLAQLLEEKDLLQKVQNEKIENLTRMLVTSSSLTLQQELKAKRKRRVTWCLGKINKMKNSNYADQFNIPTNITTKTHKLSINLLREIDESVCSESDVFSNTLDTLSEIE
notes: human CENP-E, N-terminal truncation with the motor domain and the first predicted coiled-coil (334-401), ending at residue 483; the start at residue 1 is printed only for the ColabFold input (1-483); Codon-optimised synthetic gene in pFastBac1; A mixture of monomers and dimers in solution; also called truncated human CENP-E; minimal human CENP-E motor; source: Sf9 cells (baculovirus), purified …
[1]
  stoichiometry N: 2

B2: CENP-E754-2mNeon (domain or fragment, human, UniProt Q02224 1-754, looked up)
chain: MAEEGAVAVCVRVRPLNSREESLGETAQVYWKTDNNVIYQVDGSKSFNFDRVFHGNETTKNVYEEIAAPIIDSAIQGYNGTIFAYGQTASGKTYTMMGSEDHLGVIPRAIHDIFQKIKKFPDREFLLRVSYMEIYNETITDLLCGTQKMKPLIIREDVNRNVYVADLTEEVVYTSEMALKWITKGEKSRHYGETKMNQRSSRSHTIFRMILESREKGEPSNCEGSVKVSHLNLVDLAGSERAAQTGAAGVRLKEGCNINRSLFILGQVIKKLSDGQVGGFINYRDSKLTRILQNSLGGNAKTRIICTITPVSFDETLTALQFASTAKYMKNTPYVNEVSTDEALLKRYRKEIMDLKKQLEEVSLETRAQAMEKDQLAQLLEEKDLLQKVQNEKIENLTRMLVTSSSLTLQQELKAKRKRRVTWCLGKINKMKNSNYADQFNIPTNITTKTHKLSINLLREIDESVCSESDVFSNTLDTLSEIEWNPATKLLNQENIESELNSLRADYDNLVLDYEQLRTEKEEMELKLKEKNDLDEFEALERKTKKDQEMQLIHEISNLKNLVKHAEVYNQDLENELSSKVELLREKEDQIKKLQEYIDSQKLENIKMDLSYSLESIEDPKQMKQTLFDAETVALDAKRESAFLRSENLELKEKMKELATTYKQMENDIQLYQSQLEAKKKMQVDLEKELQSAFNEITKLTSLIDGKVPKDLLCNLELEGKITDLQKELNKEVEENEALREEVILLSELKSLPS
notes: human CENP-E, N-terminal truncation with the motor domain and five predicted coiled-coils of the native stalk, ending at residue 754; The methods call it a dimeric motor; the self-association row is of one chain with another; also called truncated CENP-E; source: Sf9 cells (baculovirus), purified (HisTrap, Superose 6); not shown: mNeonGreen (2 x tandem), C-terminal, kept
[2]
  binding result: binds
